Consider six variants from IntAct's records for PubMed 26455799.

B1: Cilia- and flagella-associated protein 36 (Mus musculus), Q8C6E0 (parent)
chain: MAAEEEDEVEWVVESIAGFLRGPDWSIPILDFVEQKCEVFDDEEESKLTYTEIHQEYKELVEKLLESYLKEIGINEDQFQEACTSPLAKTRTSQAILQPVLAAEDFTIFKAMMVQKNIEMQLQAIRIIQERNGVLPDCLTDGADVVSDLEQEEMKILREVLRKSKEEYDQEEERKRKKQSSEAKMEELPVYTSEAEKMSNSQGDGEHFVQPPSEVKVHFANQSVQPLARKMELLPETSSLTQKGLKIPGLEHASMEGPIANLSALGTEELRQREHYLKQKRDKLLSMRKDTRTKQIQNTEQKGKPTREAEEMTEKPEMTAEEKQTLLKRRLLAEKLKEEVINK
B2: ADP-ribosylation factor-like protein 2 (Mus musculus), Q9D0J4 (parent)
chain: MGLLTILKKMKQKERELRLLMLGLDNAGKTTILKKFNGEDVDTISPTLGFNIKTLEHRGFKLNIWDVGGQKSLRSYWRNYFESTDGLIWVVDSADRQRMQDCQRELQSLLVEERLAGATLLIFANKQDLPGALSCNAIQEALELDSIRSHHWRIQGCSAVTGEDLLPGIDWLLDDISSRVFTAD

Variants of B1 are the subject of one assay. The note with it: with arl3_mouse Arl3, Q9WUL7.
Sequence of arl3_mouse Arl3, Q9WUL7 (Q9WUL7 whole entry): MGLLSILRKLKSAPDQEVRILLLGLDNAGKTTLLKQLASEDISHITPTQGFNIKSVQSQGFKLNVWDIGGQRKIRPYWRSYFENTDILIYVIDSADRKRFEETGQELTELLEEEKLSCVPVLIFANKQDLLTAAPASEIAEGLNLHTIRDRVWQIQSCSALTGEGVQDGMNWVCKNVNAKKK
Turning to L65D;C83R;V100H, the “effect of a mutation on the interaction” value is reported as “decreasing interaction strength”.

Regarding E44R;L48R, the “effect of a mutation on the interaction” value is reported as “decreasing interaction strength”.

Turning to E44R;E45R, the “effect of a mutation on the interaction” value is on record as “decreasing interaction strength”.

Consider L65D;C83R, for which the “effect of a mutation on the interaction” value is given as “decreasing interaction strength”.

Variants of B2 are the subject of another assay. The note with it: with cfa36_mouse Cfap36, Q8C6E0.
With L4D, the “effect of a mutation on the interaction” value was “decreasing interaction strength”.

For the variant F50A, the “effect of a mutation on the interaction” value is on record as “decreasing interaction strength”.
